The source of these data is the array DNA melting data of Ke et al..

The nature of this data set: melting temperature; melt of duplexes. Particulars: sodium 0.0675 M; strand 1 µM.
For the substance “CGACGTGCTGCATGTGCTG+CAGCACATCCGGCACGTCG ((((((((.(.((((((((+)))))))).).))))))))”, the Tm was 51.9 °C.
Consider “CGACGTGCCTGATGTGCTG+CAGCACATAACGCACGTCG ((((((((.(.((((((((+)))))))).).))))))))”, for which the melting temperature (Tm) was found to be 48.8 °C.
With “CGACGTGCTGCATGTGCTG+CAGCACATCCCGCACGTCG ((((((((.(.((((((((+)))))))).).))))))))”, the melting temperature (Tm) was 49.9 °C.
As for “CGACGTGCTCGATGTGCTG+CAGCACATTGTGCACGTCG ((((((((.(.((((((((+)))))))).).))))))))”, the figure is 51.5 °C; as for “CGACGTGCTGGATGTGCTG+CAGCACATAGTGCACGTCG ((((((((...((((((((+))))))))...))))))))”, 45 °C.
For the substance “CGACGTGCAGCATGTGCTG+CAGCACATTCAGCACGTCG ((((((((.(.((((((((+)))))))).).))))))))”, the Tm came to 47.8 °C.
Consider “CGACGTGCGGAATGTGCTG+CAGCACATATAGCACGTCG ((((((((...((((((((+))))))))...))))))))”, for which the midpoint of thermal melting (Tm) worked out at 55 °C.
As for “CGACGTGCTAAATGTGCTG+CAGCACATGGAGCACGTCG (((((((((..((((((((+))))))))..)))))))))”, the figure is 54.5 °C; as for “CGACGTGCGTCATGTGCTG+CAGCACATCAAGCACGTCG ((((((((.(.((((((((+)))))))).).))))))))”, 52.6 °C.
To “CGACGTGCGTTATGTGCTG+CAGCACATTACGCACGTCG ((((((((((.((((((((+)))))))).))))))))))” belongs 58.6 °C; to “CGACGTGCCCTATGTGCTG+CAGCACATGGGGCACGTCG ((((((((((.((((((((+)))))))).))))))))))”, 61.4 °C.
As for “CGACGTGCGTGATGTGCTG+CAGCACATAATGCACGTCG ((((((((.(.((((((((+)))))))).).))))))))”, the figure is 52.9 °C; as for “CGACGTGCGTTATGTGCTG+CAGCACATTATGCACGTCG ((((((((.(.((((((((+)))))))).).))))))))”, 53 °C.
Take “CGACGTGCGCCATGTGCTG+CAGCACATGGGGCACGTCG ((((((((.((((((((((+)))))))))).))))))))”: the Tm was 63.2 °C.
For the substance “CGACGTGCCACATGTGCTG+CAGCACATGGAGCACGTCG ((((((((..(((((((((+)))))))))..))))))))”, the midpoint of thermal melting (Tm) was found to be 56.1 °C.
In the case of “CGACGTGCAAGATGTGCTG+CAGCACATCACGCACGTCG ((((((((..(((((((((+)))))))))..))))))))”, the midpoint of thermal melting (Tm) came out at 53.8 °C.
For “CGACGTGCAAGATGTGCTG+CAGCACATAGTGCACGTCG (((((((((..((((((((+))))))))..)))))))))”, the Tm amounted to 48.6 °C.
As for “CGACGTGCATCATGTGCTG+CAGCACATAACGCACGTCG ((((((((.(.((((((((+)))))))).).))))))))”, the figure is 48.3 °C; as for “CGACGTGCGTGATGTGCTG+CAGCACATTCGGCACGTCG ((((((((...((((((((+))))))))...))))))))”, 51.5 °C.
Regarding “CGACGTGCGAAATGTGCTG+CAGCACATTTGGCACGTCG ((((((((.((((((((((+)))))))))).))))))))”, the midpoint of thermal melting (Tm) was found to be 57.3 °C.
Take “CGACGTGCGTGATGTGCTG+CAGCACATTAGGCACGTCG ((((((((.(.((((((((+)))))))).).))))))))”: the Tm turned out to be 54.1 °C.
As for “CGACGTGCGGTATGTGCTG+CAGCACATGGTGCACGTCG ((((((((...((((((((+))))))))...))))))))”, the figure is 51.5 °C; as for “CGACGTGCGACATGTGCTG+CAGCACATAATGCACGTCG ((((((((...((((((((+))))))))...))))))))”, 50.8 °C.
As to “CGACGTGCCTTATGTGCTG+CAGCACATTACGCACGTCG ((((((((.(.((((((((+)))))))).).))))))))”, the melting temperature (Tm) came out at 47.7 °C.
To “CGACGTGCCACATGTGCTG+CAGCACATATAGCACGTCG ((((((((.(.((((((((+)))))))).).))))))))” belongs 48.4 °C.
Turning to “CGACGTGCACTATGTGCTG+CAGCACATTAGGCACGTCG ((((((((...((((((((+))))))))...))))))))”, the Tm is 46.4 °C.
For “CGACGTGCCCAATGTGCTG+CAGCACATCTTGCACGTCG ((((((((...((((((((+))))))))...))))))))”, the Tm was 48.1 °C.
To “CGACGTGCCCTATGTGCTG+CAGCACATTGAGCACGTCG ((((((((.(.((((((((+)))))))).).))))))))” belongs 51.8 °C; to “CGACGTGCAGTATGTGCTG+CAGCACATGGCGCACGTCG ((((((((...((((((((+))))))))...))))))))”, 50.2 °C; to “CGACGTGCTAGATGTGCTG+CAGCACATCGAGCACGTCG (((((((((.(((((((((+))))))))).)))))))))”, 59.7 °C.
To “CGACGTGCAAGATGTGCTG+CAGCACATCCTGCACGTCG (((((((((.(((((((((+))))))))).)))))))))” belongs 56.5 °C; to “CGACGTGCTCTATGTGCTG+CAGCACATGCTGCACGTCG ((((((((...((((((((+))))))))...))))))))”, 47 °C.
As to “CGACGTGCTCTATGTGCTG+CAGCACATCCGGCACGTCG ((((((((...((((((((+))))))))...))))))))”, the Tm amounted to 48.4 °C.
To “CGACGTGCGGTATGTGCTG+CAGCACATAAGGCACGTCG ((((((((..(((((((((+)))))))))..))))))))” belongs 53 °C; to “CGACGTGCGATATGTGCTG+CAGCACATCACGCACGTCG (((((((((..((((((((+))))))))..)))))))))”, 53.7 °C.
Regarding “CGACGTGCATAATGTGCTG+CAGCACATGGCGCACGTCG ((((((((...((((((((+))))))))...))))))))”, the Tm worked out at 53 °C.
As for “CGACGTGCCAAATGTGCTG+CAGCACATTCGGCACGTCG (((((((((.(((((((((+))))))))).)))))))))”, the figure is 57.5 °C; as for “CGACGTGCTAGATGTGCTG+CAGCACATTTTGCACGTCG ((((((((.(.((((((((+)))))))).).))))))))”, 52 °C; as for “CGACGTGCAATATGTGCTG+CAGCACATCACGCACGTCG ((((((((...((((((((+))))))))...))))))))”, 46.8 °C.
For “CGACGTGCGCTATGTGCTG+CAGCACATTCTGCACGTCG ((((((((...((((((((+))))))))...))))))))”, the midpoint of thermal melting (Tm) turned out to be 48.6 °C.
As for “CGACGTGCCTTATGTGCTG+CAGCACATGAAGCACGTCG ((((((((.(.((((((((+)))))))).).))))))))”, the figure is 50.5 °C; as for “CGACGTGCAGAATGTGCTG+CAGCACATTTAGCACGTCG ((((((((..(((((((((+)))))))))..))))))))”, 53.3 °C.
Regarding “CGACGTGCCAAATGTGCTG+CAGCACATCAAGCACGTCG ((((((((...((((((((+))))))))...))))))))”, the Tm was found to be 49.3 °C.
“CGACGTGCGTAATGTGCTG+CAGCACATATCGCACGTCG (((((((((..((((((((+))))))))..)))))))))”: the Tm came to 55.6 °C.
As to “CGACGTGCCGCATGTGCTG+CAGCACATGGCGCACGTCG ((((((((..(((((((((+)))))))))..))))))))”, the melting temperature (Tm) was 54.9 °C.
Take “CGACGTGCTCTATGTGCTG+CAGCACATAACGCACGTCG ((((((((..(((((((((+)))))))))..))))))))”: the Tm is 49.7 °C.
Regarding “CGACGTGCCCTATGTGCTG+CAGCACATGCTGCACGTCG ((((((((...((((((((+))))))))...))))))))”, the melting temperature (Tm) is 45.4 °C.
As for “CGACGTGCTATATGTGCTG+CAGCACATGCTGCACGTCG ((((((((...((((((((+))))))))...))))))))”, the Tm came to 48.1 °C.
Turning to “CGACGTGCCGCATGTGCTG+CAGCACATTTTGCACGTCG ((((((((...((((((((+))))))))...))))))))”, the melting temperature (Tm) was found to be 46.2 °C.
“CGACGTGCATGATGTGCTG+CAGCACATAACGCACGTCG ((((((((.(.((((((((+)))))))).).))))))))”: the Tm is 49.3 °C.
For “CGACGTGCCCGATGTGCTG+CAGCACATATAGCACGTCG ((((((((...((((((((+))))))))...))))))))”, the Tm turned out to be 49 °C.
Turning to “CGACGTGCCGAATGTGCTG+CAGCACATTGTGCACGTCG ((((((((..(((((((((+)))))))))..))))))))”, the melting temperature (Tm) was determined as 50.1 °C.
In the case of “CGACGTGCCTAATGTGCTG+CAGCACATAGCGCACGTCG ((((((((...((((((((+))))))))...))))))))”, the Tm came to 50.3 °C.
For the substance “CGACGTGCCGTATGTGCTG+CAGCACATTGCGCACGTCG ((((((((...((((((((+))))))))...))))))))”, the Tm was determined as 49.3 °C.
For the substance “CGACGTGCCAGATGTGCTG+CAGCACATAGGGCACGTCG (((((((((..((((((((+))))))))..)))))))))”, the Tm came out at 55.8 °C.
In the case of “CGACGTGCACTATGTGCTG+CAGCACATGCAGCACGTCG ((((((((...((((((((+))))))))...))))))))”, the melting temperature (Tm) is 45.3 °C.
Regarding “CGACGTGCAGCATGTGCTG+CAGCACATCTGGCACGTCG ((((((((...((((((((+))))))))...))))))))”, the Tm amounted to 49.5 °C.
As for “CGACGTGCTCAATGTGCTG+CAGCACATTCTGCACGTCG ((((((((..(((((((((+)))))))))..))))))))”, the figure is 50.8 °C; as for “CGACGTGCGGTATGTGCTG+CAGCACATATGGCACGTCG ((((((((..(((((((((+)))))))))..))))))))”, 54 °C.
As to “CGACGTGCACGATGTGCTG+CAGCACATGGTGCACGTCG ((((((((((.((((((((+)))))))).))))))))))”, the midpoint of thermal melting (Tm) turned out to be 55.8 °C.
Consider “CGACGTGCCAGATGTGCTG+CAGCACATGAGGCACGTCG (((((((((..((((((((+))))))))..)))))))))”, for which the midpoint of thermal melting (Tm) is 55.4 °C.
As for “CGACGTGCCTAATGTGCTG+CAGCACATGGAGCACGTCG ((((((((...((((((((+))))))))...))))))))”, the Tm was found to be 51.9 °C.
In the case of “CGACGTGCGAGATGTGCTG+CAGCACATGCAGCACGTCG ((((((((...((((((((+))))))))...))))))))”, the melting temperature (Tm) was determined as 53.7 °C.
Regarding “CGACGTGCTCTATGTGCTG+CAGCACATGTAGCACGTCG (((((((((..((((((((+))))))))..)))))))))”, the Tm came to 52.3 °C.
To “CGACGTGCCCTATGTGCTG+CAGCACATCGTGCACGTCG ((((((((.(.((((((((+)))))))).).))))))))” belongs 44.2 °C; to “CGACGTGCTATATGTGCTG+CAGCACATTCCGCACGTCG ((((((((...((((((((+))))))))...))))))))”, 47.8 °C.

Broadly, the Tm is the temperature at which the thermal transition is half complete.
